Paper PMC2800194

Tests used:
Test in all cases: fluorescence anisotropy
Details in all cases: Anisotropy: 45 mM Tris pH 8.0, 1 mM CoCl2, 1 mM 2-oxoglutarate, 1 nM DNA, 25 °C, added salt not stated
[1] = molecular target: T1, AlkB D135A D135A (Escherichia coli) (UniProt P05050)
T1 sequence: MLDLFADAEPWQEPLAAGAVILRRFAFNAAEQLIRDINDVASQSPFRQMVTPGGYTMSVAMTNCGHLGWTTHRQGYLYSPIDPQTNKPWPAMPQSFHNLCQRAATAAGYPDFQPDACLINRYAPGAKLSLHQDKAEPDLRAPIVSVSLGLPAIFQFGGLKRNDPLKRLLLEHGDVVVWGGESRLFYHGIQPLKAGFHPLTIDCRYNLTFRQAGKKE

[2] = test system: AlkB R161A (Escherichia coli)
[3] = test system: AlkB T51A (Escherichia coli)
[4] = test system: AlkB W69A (Escherichia coli)
[5] = test system: AlkB Y76A (Escherichia coli)
[6] = test system: AlkB wt (Escherichia coli)
[7] = one 1-methyladenine (position not given)
[8] = 1,N6-ethenoadenine (position not given)

Substance 30-mer 1-meA has a Kd [1, 7] of 316 nM, a Kd [2, 7] of 9.6 µM and a Kd [3, 7] of 1500 nM. The Kd [4, 7] was 5.2 µM, the Kd [5, 7] was 11 µM and the Kd [6, 7] was 2000 nM.

In the case of 30-mer undamaged, the Kd [1] is reported as 4900 nM, the Kd [2] is reported as 20 µM and the Kd [3] is reported as 51000 nM. The Kd [4] was 35 µM, the Kd ([5]; 1 mM Co2+, 1 mM 2-OG) was 38 µM and the Kd [6] was 16000 nM.

Work on 30-mer εA yielded a Kd [1, 8] of 127 nM, a Kd [2, 8] of 8 µM and a Kd [3, 8] of 2700 nM. The Kd [4, 8] was 7.8 µM, the Kd [5, 8] was 22 µM and the Kd [6, 8] was 1200 nM.
